Results from patent US20180148504A1 (EISAI R AND D MANAGEMENT, published 2018).
One block for each binder: values may come before it.

Experiments:
[1] = target: T1, recombinant purified FRα (ECL assay calibrator) (human, UniProt P15328 25-234); experiment: ECL sandwich, FRα calibrator; capture 19D2.G9; binder = detection Ab
T1 construct: Calibrator of the ECL sandwich assays; also called FRα calibrator; FRα standard

[2] = target: T1, recombinant purified FRα (ECL assay …); experiment: ECL sandwich on FRα, signal to background; capture 6A2.G7; binder = detection Ab
[3] = target: T1, recombinant purified FRα (ECL assay …); experiment: ECL sandwich on FRα, signal to background; capture 19D4.B7; binder = detection Ab
[4] = target: T1, recombinant purified FRα (ECL assay …); experiment: ECL sandwich on FRα, signal to background; capture 2F11.F8; binder = detection Ab
[5] = target: T1, recombinant purified FRα (ECL assay …); experiment: ECL sandwich on FRα, signal to background; capture 26A9.C4; binder = detection Ab
[6] = target: T1, recombinant purified FRα (ECL assay …); experiment: ECL sandwich, FRα calibrator; capture 1A8.G11.E7; binder = detection Ab
[7] = target: T1, recombinant purified FRα (ECL assay …); experiment: ECL sandwich, FRα calibrator; capture 5C12.H8; binder = detection Ab
[8] = target: T1, recombinant purified FRα (ECL assay …); experiment: ECL sandwich, FRα calibrator; capture 30G6.G6.G4.E9; binder = detection Ab
[9] = target: T1, recombinant purified FRα (ECL assay …); experiment: ECL sandwich, FRα calibrator; capture 26A9.C4; binder = detection Ab
[10] = target: T1, recombinant purified FRα (ECL assay …); experiment: ECL sandwich, FRα calibrator; capture 24H8.D3; binder = detection Ab
[11] = target: T1, recombinant purified FRα (ECL assay …); experiment: ECL sandwich on FRα, signal to background; capture 19D2.G9; binder = detection Ab
[12] = target: T1, recombinant purified FRα (ECL assay …); experiment: ECL sandwich, FRα calibrator; capture 24H8.F3; binder = detection Ab
[13] = target: T1, recombinant purified FRα (ECL assay …); experiment: ECL sandwich on FRα, signal to background; capture 30G6.G6.G4.E9; binder = detection Ab
[14] = target: T1, recombinant purified FRα (ECL assay …); experiment: ECL sandwich on FRα, signal to background; capture 1A8.G11.E7; binder = detection Ab
[15] = target: T1, recombinant purified FRα (ECL assay …); experiment: ECL sandwich on FRα, signal to background; capture 1C6.E12.G8; binder = detection Ab
[16] = target: T2, human folate receptor beta (FRβ), recombinant, C-terminal 6xHis (human, UniProt P14207 17-230, limits assumed); experiment: direct ELISA, plates coated with 1 µg/mL FR isoform, dilution series of culture supernatant
T2 construct: Transiently expressed in 293F cells and purified; coated on ELISA plates

[17] = target: T3, human folate receptor gamma (FRγ), recombinant, C-terminal 6xHis (human, UniProt P41439 23-245, limits assumed); experiment: as above
T3 construct: Transiently expressed in 293F cells and purified; coated on ELISA plates

[18] = target: T1, recombinant purified FRα (ECL assay …); experiment: ECL sandwich on FRα, signal to background; capture 5C12.H8; binder = detection Ab
[19] = target: T1, recombinant purified FRα (ECL assay …); experiment: ECL sandwich, FRα calibrator; capture 2F11.F8; binder = detection Ab
[20] = target: T1, recombinant purified FRα (ECL assay …); experiment: ECL sandwich, FRα calibrator; capture 28H12.G9; binder = detection Ab
[21] = target: T1, recombinant purified FRα (ECL assay …); experiment: ECL sandwich, FRα calibrator; capture 1C6.E12.G8; binder = detection Ab
[22] = target: T1, recombinant purified FRα (ECL assay …); experiment: ECL sandwich on FRα, signal to background; capture 1D2.G8.G10; binder = detection Ab
[23] = target: T1, recombinant purified FRα (ECL assay …); experiment: ECL sandwich on FRα, signal to background; capture 24H8.D3; binder = detection Ab
[24] = target: T1, recombinant purified FRα (ECL assay …); experiment: ECL sandwich, FRα calibrator; capture 6A2.G7; binder = detection Ab
[25] = target: T1, recombinant purified FRα (ECL assay …); experiment: ECL sandwich on FRα, signal to background; capture 28H12.G9; binder = detection Ab
[26] = target: T1, recombinant purified FRα (ECL assay …); experiment: ECL sandwich, FRα calibrator; capture 1D2.G8.G10; binder = detection Ab
[27] = target: T1, recombinant purified FRα (ECL assay …); experiment: ECL sandwich, FRα calibrator; capture 19D4.B7; binder = detection Ab
[28] = target: T1, recombinant purified FRα (ECL assay …); experiment: ECL sandwich on FRα, signal to background; capture 24H8.F3; binder = detection Ab
[29] = target: T4, recombinant human folate receptor alpha (rhFRα) (human, UniProt P15328 25-234); experiment: BIAcore (SPR), format not described
T4 construct: CHO: Ig kappa leader, C-terminal 6xHis replacing the GPI attachment site; also called FOLR1; FOLR-1
T4 sequence (P15328 25-234 limits assumed): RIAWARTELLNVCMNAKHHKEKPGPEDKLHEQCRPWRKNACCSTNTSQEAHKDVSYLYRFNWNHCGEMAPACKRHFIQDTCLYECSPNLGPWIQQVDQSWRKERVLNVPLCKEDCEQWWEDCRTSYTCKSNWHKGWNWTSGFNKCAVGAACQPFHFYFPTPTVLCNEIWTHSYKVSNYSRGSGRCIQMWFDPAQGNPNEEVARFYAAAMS

T3 sequence (P41439 other isoform, or with tags, fused parts or gaps limits assumed): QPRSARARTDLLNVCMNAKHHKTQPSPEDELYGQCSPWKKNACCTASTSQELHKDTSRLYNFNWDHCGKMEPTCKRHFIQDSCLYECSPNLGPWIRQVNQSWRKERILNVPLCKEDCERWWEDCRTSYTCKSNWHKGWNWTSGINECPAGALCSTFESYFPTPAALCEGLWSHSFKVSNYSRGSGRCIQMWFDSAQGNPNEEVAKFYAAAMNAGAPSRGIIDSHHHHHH
T1 sequence (P15328 25-234 limits assumed): as the sequence (P15328 25-234 limits assumed) above
T2 sequence (P14207 other isoform, or with tags, fused parts or gaps limits assumed): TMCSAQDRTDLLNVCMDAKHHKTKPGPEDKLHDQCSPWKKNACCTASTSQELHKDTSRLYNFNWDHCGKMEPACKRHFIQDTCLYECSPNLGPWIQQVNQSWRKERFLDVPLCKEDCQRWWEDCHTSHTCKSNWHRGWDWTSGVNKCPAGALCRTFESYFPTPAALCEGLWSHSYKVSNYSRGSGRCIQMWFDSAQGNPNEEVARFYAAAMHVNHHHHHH

- Specific signal at 500 pg/mL [1]: 106
- Average of S/B [2]: 27
- Average of S/B [3]: 310
- Average of S/B [4]: 1
- Average of S/B [5]: 1
- Specific signal at 500 pg/mL [6]: 67
- Specific signal at 500 pg/mL [7]: 76
- Specific signal at 500 pg/mL [8]: 17900
- Specific signal at 500 pg/mL [9]: 80
- Specific signal at 500 pg/mL [10]: 84
- Average of S/B [11]: 2
- Specific signal at 500 pg/mL [12]: 87
- Average of S/B [13]: 244
- Average of S/B [14]: 1
- Average of S/B [15]: 1
- binding result [16]: no binding
- binding result [17]: no binding
- Average of S/B [18]: 1
- Specific signal at 500 pg/mL [19]: 60
- Specific signal at 500 pg/mL [20]: 83
- Specific signal at 500 pg/mL [21]: 75
- Average of S/B [22]: 1
- Average of S/B [23]: 1
- Specific signal at 500 pg/mL [24]: 1840
- Average of S/B [25]: 1
- Specific signal at 500 pg/mL [26]: 64
- Specific signal at 500 pg/mL [27]: 41400
- Average of S/B [28]: 1
B1: Monoclonal antibody 1A8.G11.E7 (antibody, mouse IgG1, V domains shown)
VH: ESGPGLVAPSQSLSITCTVSGFSLTSYGVSWVRQPPGKGLEWLGVIWGDGSTNYHSTLISRLSISKDNSKSQVFLKLNSLQTDDTATYYCAKPHPAATGAMDYWGQGTSVTVSS
VL: TQTTSSLSASLGDRVTISCRASQDISNHLNWYQQKPDGTVKLLIYYTSRLHSGVPSRFSGSGSGTDYSLTISNLEQEDIATYFCQQGNTLWTFGGGTKLEIK
notes: Murine IgG1 kappa from hybridoma; also called ATCC PTA-123100

- Specific signal at 500 pg/mL [1]: 67
- Average of S/B [2]: 26
- Average of S/B [3]: 218
- Average of S/B [4]: 1
- Average of S/B [5]: 1
- Specific signal at 500 pg/mL [6]: 57
- Specific signal at 500 pg/mL [7]: 73
- Specific signal at 500 pg/mL [8]: 7910
- Specific signal at 500 pg/mL [9]: 86
- Specific signal at 500 pg/mL [10]: 79
- Average of S/B [11]: 1
- Specific signal at 500 pg/mL [12]: 67
- Average of S/B [13]: 75
- Average of S/B [14]: 1
- Average of S/B [15]: 1
- binding result [16]: no binding
- binding result [17]: no binding
- Average of S/B [18]: 1
- Specific signal at 500 pg/mL [19]: 62
- Specific signal at 500 pg/mL [20]: 78
- Kd [29]: 6.88 nM
- Specific signal at 500 pg/mL [21]: 74
- Average of S/B [22]: 1
- Average of S/B [23]: 1
- Specific signal at 500 pg/mL [24]: 1690
- Average of S/B [25]: 1
- Specific signal at 500 pg/mL [26]: 87
- Specific signal at 500 pg/mL [27]: 21800
- Average of S/B [28]: 1
B2: Monoclonal antibody 1D2.D8.G10 (antibody, mouse IgG1, V domains shown)
VH: QSGTVLARPGASVKMSCKASGYSFTSNWMHWIKQRPGQGLEWIGAIYPGNSDTSYNQKFKGKAKLTAVTSASTAYMELSSLTNEDSAVYHCTRGDGSSFWYFDVWGAGTTVTVSS
VL: QSPASLVVSLGQRATISCRASKSVSTSGYSYMYWYQQKSGQPPKLLIYLASNLESGVPARFSGGGSGTDFTLNIHPVEEEDAATYYCQQSRELPPTFGGGTKLEIK
notes: Murine IgG1 kappa from hybridoma; also called 1D2.D8.G0; ATCC PTA-123098

- Specific signal at 500 pg/mL [1]: 242
- Average of S/B [2]: 27
- Average of S/B [3]: 327
- Average of S/B [4]: 1
- Average of S/B [5]: 1
- Specific signal at 500 pg/mL [6]: 139
- Specific signal at 500 pg/mL [7]: 70
- Specific signal at 500 pg/mL [8]: 28300
- Specific signal at 500 pg/mL [9]: 72
- Specific signal at 500 pg/mL [10]: 158
- Average of S/B [11]: 4
- Specific signal at 500 pg/mL [12]: 104
- Average of S/B [13]: 501
- Average of S/B [14]: 2
- Average of S/B [15]: 1
- binding result [16]: no binding
- binding result [17]: no binding
- Average of S/B [18]: 2
- Specific signal at 500 pg/mL [19]: 61
- Specific signal at 500 pg/mL [20]: 85
- Specific signal at 500 pg/mL [21]: 64
- Average of S/B [22]: 1
- Average of S/B [23]: 2
- Specific signal at 500 pg/mL [24]: 1870
- Average of S/B [25]: 2
- Specific signal at 500 pg/mL [26]: 64
- Specific signal at 500 pg/mL [27]: 33600
- Average of S/B [28]: 1
B3: Monoclonal antibody 24H8.F3 (antibody, mouse IgG1, V domains shown)
VH: GPGLVAPSQSLSITCTVSGFSLTSYGVSWVRQPPGKGLEWLGVIWGDGSTNYHSTLISRLSISKDNSKSQVFLKLNSLQTDDTATYYCAKPHPAATGAMDYWGQGTSVTVSS
VL: TTSSLSASLGDRVTISCRASQDISNHLNWYQQKPDGTIKLLIYYTSKLHSGVPSRFSGSGSGTDYSLTISNLEQEDIATYFCQQGNTLWTFGGGTKLEIK
notes: Murine IgG1 kappa from hybridoma; also called ATCC PTA-123097
